Source: patent publication US20210054062A1 (NEURACLE SCIENCE, published 2021)

Tests used:
[1] = molecular target: T1, FAM19A5-rabbit Fc; assay: ELISA: FAM19A5-rFc captured on coated anti-rabbit Fc antibody, antibody at 2.8 to 2055 pM, anti-human kappa light chain-HRP, OD450. The table prints R2 of the fit as 0.999.
T1 construct: also called FAM19A5-rFc
Experimental: (§1) For the ELISA assay, the following protocol was used. Anti-rabbit Fc antibody (diluted to a concentration of 1 μg/mL in 50 mM carbonate buffer, pH 9.6) was used to coat the 96-well plates (100 μL/well) overnight at 4° C. Next, the plates were washed with the washing buffer (PBST: 0.05% Tween-20/PBS) for a total of five washes. The plates were then blocked for 1 hour at 37° C. with the blocking buffer (1% BSA/PBST) (150 μL/well) and washed again with the washing buffer. Then, 50 ng/mL of FAM19A5-rabbit Fc (also called FAM19A5-rFc) antigen diluted in blocking buffer was added to each of the wells. The plates were incubated for an additional hour at 37° C. After the incubation, the plates were washed again for a total of five washes with the washing buffer. The diluted anti-FAM19A5 antibodies in blocking buffer to different concentrations (2055 pM, 685 pM, 228.3 pM, 76.1 pM, 25.4 pM, 8.5 pM, 2.8 pM, 0 pM) were added to each of the wells, and the plates were incubated for 2 hours at 37° C. After the incubation, the plates were washed (total of five washes in the wash buffer) and then, diluted anti-human kappa light chain-HRP (1:10000 in blocking buffer) was added to the well (100 μL/well). […] This reaction was stopped using 100 μL of sulfuric acid (2N H₂SO₄), and the extent of color change was detected via absorption at 450 nm using a 96 well microplate reader (Molecular Device).

[2] = molecular target: T1, FAM19A5-rabbit Fc; assay: ELISA: FAM19A5-rFc captured on coated anti-rabbit Fc antibody, antibody at 2.8 to 2055 pM, anti-human kappa light chain-HRP, OD450. The table prints R2 of the fit as 1.000.
Experimental: as §1

T1 sequence (Q7Z5A7 44-132): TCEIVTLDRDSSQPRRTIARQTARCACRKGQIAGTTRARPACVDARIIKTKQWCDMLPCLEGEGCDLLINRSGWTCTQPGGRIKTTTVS

Row | EC50 [1] [nM] | EC50 [2] [nM] | Binder
1 | 0.21 |  | Anti-FAM19A5 antibody ("S5-SG") (antibody, V domains shown, The ELISA detected it with anti-human kappa light chain-HRP; also called deimmunized clone S5-SG; S5-2.GKNG antibody) VH: AVTLDESGGGLQTPGGALRLSCKASGFTFSSYQMGWVRQAPGKGLEWVSAINKGGSDTSYGSAVKGRATISRDNGQSTLYLQMNSLRAEDTAVYFCAKGSASYITAATIDAWGHGTEVIVSS VL: ALTQPSSVSANPGETARITCSGGASSGYGYGWYQQKPSSAPLTVIYKDSERPSDIPSRFSGSSSGSTHTLTISGVQAEDEAVYFCGNDDYSSDSGYVGVFGAGTTLTVL
2 |  | 0.13 | Reference anti-FAM19A5 antibody ("1-65") (antibody, V domains shown, The ELISA detected it with anti-human kappa light chain-HRP; also called 1-65 antibody; clone 1-65) VH: AVTLDESGGGLQTPGGALSLVCKASGFTFSSYQMGWVRQAPGKGLEWVGVINKSGSDTSYGSAVKGRATISRDNGQSTVRLQLNNLRAEDTGTYFCAKGSASYITAATIDAWGHGTEVIVSS VL: ALTQPSSVSANPGETVKITCSGGGSSGYGYGWYQQKSPSSAPLTVIYWNDKRPSDIPSRFSGSKSGSTHTLTITGVQAEDEAVYFCGNDDYSSDSGYVGVFGAGTTLTVL
3 |  | 0.38 | Anti-FAM19A5 antibody ("SS01-13-s5") (antibody, V domains shown, The ELISA detected it with anti-human kappa light chain-HRP; also called deimmunized clone 1-65; deimmunized 1-65 antibody) VH: AVTLDESGGGLQTPGGALRLSCKASGFTFSSYQMGWVRQAPGKGLEWVSAINKSGSDTSYGSAVKGRATISRDNGQSTLYLQMNSLRAEDTAVYFCAKGSASYITAATIDAWGHGTEVIVSS VL: ALTQPSSVSANPGETARITCSGGASSGYGYGWYQQKPSSAPLTVIYKDSERPSDIPSRFSGSSSGSTHTLTISGVQAEDEAVYFCGNDDYSSDSGYVGVFGAGTTLTVL
